{
  "source": "patent US8119117",
  "target": "CD40 receptor on dendritic cells (mouse) (UniProt P27512)",
  "sequence (P27512 20-289)": "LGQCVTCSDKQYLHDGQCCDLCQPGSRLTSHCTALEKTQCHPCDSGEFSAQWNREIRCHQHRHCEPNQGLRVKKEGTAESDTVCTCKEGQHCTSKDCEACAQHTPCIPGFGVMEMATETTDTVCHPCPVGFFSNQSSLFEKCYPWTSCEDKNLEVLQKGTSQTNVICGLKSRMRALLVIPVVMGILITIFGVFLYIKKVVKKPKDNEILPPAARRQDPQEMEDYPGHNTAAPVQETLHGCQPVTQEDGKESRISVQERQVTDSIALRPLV",
  "assay": "cell-based or functional assay",
  "data": [
    {"substance": "E7-ΔCtΔTmCD40L fusion protein (secreted; HPV type 16 E7, 10 amino acid linker, murine CD40 ligand residues 52-260) (from UniProt P03129 1-98; P27548 52-260)", "values": [
      {"measurement": "IFN-γ released by DCs exposed to the vector (ELISA), first 24 hours", "value": 335, "unit": "pg"},
      {"measurement": "IL-12 produced by DCs exposed to the vector (ELISA), 24 h (pg/2×10^5 cell/ml/24 h)", "value": 18},
      {"measurement": "IL-12 produced by DCs exposed to the vector (ELISA), 48 h (pg/2×10^5 cell/ml/48 h)", "value": 88}
    ]}
  ]
}
